# Test results reported in FireProtDB (doi:10.1111/febs.12694).
# Several values for one entry are separate records, joined by “and”; a condition that tells them apart may be missing. Identical values can stand only once.
# B1: Bacteriorhodopsin wild type, P02945 (protein)
# chain: MLELLPTAVEGVSQAQITGRPEWIWLALGTALMGLGTLYFLVKGMGVSDPDAKKFYAITTLVPAIAFTMYLSMLLGYGLTMVPFGGEQNPIYWARYADWLFTTPLLLLDLALLVDADQGTILALVGADGIMIGTGLVGALTKVYSYRFVWWAISTAAMLYILYVLFFGFTSKAESMRPEVASTFKVLRNVTVVLWSAYPVVWLIGSEGAGIVPLNIETLLFMVLDVSAKVGFGLILLRSRAIFGEAEAPEPSAGDGAAATSD
# Conditions: Halobacterium salinarum (strain ATCC 700922 / JCM 11081 / NRC-1), Thermal, transition: 2, whole UniProt chain shown
protein,measurement,setting,value
B1,Tm,"pH 3.5, DSC",76.6 °C
same,Tm,"pH 4, UV spectroscopy",69.2 °C and 67 °C
same,Tm,"pH 7, DSC",98.2 °C
same,Tm,"pH 7, UV spectroscopy",90.5 °C
same,Tm,"pH 9, DSC",94.5 °C
same,Tm,"pH 9.5, UV spectroscopy, glycine buffer",86 °C
